Source: US20240299529A1

Biological target: human immunoglobulin G (hIgG) (human)
Experiment: sandwich ELISA, hIgG coated on plate, CD64 titrated, monovalent fit

Kd [pM]	Substance
53.6	Flag-CD64 (from UniProt P12314 16-374) (receptor)
45.6	recombinant wild-type CD64 (from UniProt P12314 16-374) (receptor)
